Experimental data as given in US12662540B2, “Compositions and methods for inhibition of MICA/B shedding” (DANA-FARBER CANCER INSTITUTE, INC., priority 2017, dated 2026).
“Also recorded” adds a separate entry of the source.

Experiments:
human NK cells [1] = experiment: NK cell RNA-sequencing after co-culture with antibody-pretreated A375 cells; format: cell-based; conditions: 6 hours co-culture; A375 pretreated 48 hours
Protocol: Human NK cells were isolated from a healthy volunteer to ˜99% purity. These cells were pre-activated with 1,000 U/ml IL-2 overnight. A375 tumor cells were pre-treated with 10 μg/ml of 7C6-hIgG1 or isotype control (BioXcell BE0096) antibodies for 48 hours. Cells were then washed and NK cells were co-cultured with tumor cells for 6 hours in a 5:1 ratio. Subsequently, human NK cells were re-sorted and total RNA isolated with genomic DNA digestion with QIAGEN RNeasy RNA isolation kit (74134). RNA sequencing libraries were generated using the Kapa mRNAseq kit (KapaBiosystems). The libraries were analyzed by Next-Generation Sequencing and pooled barcoded samples were subjected to VIPER analysis. RNA levels were compared for NK cells from co-cultures treated with 7C6-hIgG1 versus isotype control antibodies. A cut-off of at least 1 Log2 fold change was applied to select genes that were differentially expressed. Gene set enrichment analysis (GSEA) was also performed in order to identify relevant molecular pathways for differentially expressed mRNAs.

A2058 melanoma cells = experiment: A2058 metastasis model (NSG mice, human NK cells); format: in vivo
Protocol: Human NK cell reconstitution of NSG mice was done similar to a previous report (26). Briefly, human NK cells were obtained from fresh blood collars, as described above. Cells were treated overnight with 300 U/ml of recombinant human IL-2 (BD Pharmingen), and 1.5×10^6NK cells were injected intravenously into NSG mice. NK cell survival was supported by intraperitoneal injection of 75,000 U of IL-2 (Peprotech) every other day. Human NK cells survived in NSG mice for approximately one week under these conditions (data not shown) and therefore the last IL-2 injection was given 7 days following NK cell transfer. Furthermore, one day after NK cell inoculation and the first injection of IL-2, NSG mice were also injected intravenously with 1×10^6 A2058 melanoma cells. Two days later, mice were treated with 200 μg 7C6-hIgG1 or isotype control (BioXcell) and again once per week. Mice were bled at multiple time points to measure shed MICA and other serum markers. Euthanasia was performed on day 30 following tumor cell inoculation, lungs were perfused with Indian ink (as described above), fixed in Fekete's solution, and the number of lung metastases was counted. Lungs processed for histology were not perfused but fixed in formalin. Livers were also collected, fixed in formalin solution and the number of metastases was counted, or processed for histology. Following removal of these tissues, mice were fixed in Bouin fixative and processed for necropsy by the Rodent Histopathology Core (Dana-Farber/Harvard Cancer Center). The analysis was performed by a pathologist unaware of the different experimental groups.
Macrophages were depleted by intravenous injection of 0.2 ml clodronate liposomes (Encapsula NanoSciences LLC). In the humanized and B16F10-MICA metastasis models, 0.2 ml of clodronate liposomes or control liposomes were injected i.v. (on the same day of tumor cell inoculation and then once weekly).

Kupffer cells = experiment: Analysis of liver macrophages in humanized metastasis model; format: in vivo, NSG mice; conditions: three weeks after tumor cell inoculation
Protocol: NSG mice were injected i.v with A2058 cells and treated with 7C6-hgG1 or isotype control antibodies as described above. Three weeks following tumor cell inoculation, mice were euthanized and livers were perfused with PBS through the portal vein. Livers were mechanically dissociated and cell suspensions passed through a 70 □ filter. […] Antibodies used for subsequent labeling were APC-CD45.2, APC-CD45.1, BV785-CD11b, BV421-F4/80, BV650-CD80, PE-CD86, FITC-Ly6C, PE-Cy7-Ly6G, PERCP-Cy5.5-CD16/CD32 and Zombie NIR. Cells were acquired in a Sony Spectral Analyzer and data were analyzed by FlowJo.

A375 cells = experiment: NK cell cytotoxicity assay (51Cr release), human NK cells against human tumor cells; format: cell-based
Protocol: Human NK cells were isolated from fresh leukapheresis blood collars that had been generated by Brigham & Women's Hospital, Boston, from healthy donors. Samples were diluted with an equal volume of PBS and blood mononuclear cells were isolated by Ficoll density gradient centrifugation. Cells were washed with PBS, and NK cells were isolated by negative selection using the Human NK Cell Isolation Kit (130-092-657, Miltenyi Biotech) using an autoMACS system (Miltenyi Biotech). Enriched NK cells (purity of 50-90%) were then incubated with anti-CD56 (PE or APC conjugated) and anti-CD3 (FITC or Pacific Blue conjugated) (Biolegend) and sorted using a BD FACS Aria. Following sorting, NK cell purity was ˜99%. These cells were cultured for twelve hours in complete RPMI media supplemented with 300-1000 U/ml of recombinant human IL-2 (BD Pharmingen).
Target cells were labeled for 1 hour with 100 μCi of ^51[Cr] per 2×10^6 cells in 0.2 ml of media. Subsequently, cells were washed and plated in V-bottom 96-wells plates (5,000 target cells per well). To determine the experimental release, NK cells were added in an equal volume, but at different ratios. To determine maximum and spontaneous release, target cells were mixed with an equal volume of 2% Triton-X100 in PBS or an equal volume of media, respectively. Antibodies were added at a final concentration of 10 μg/ml.
For experiments shown in FIGS. 1E, 10, and 13E antibodies were added at the time of the killing assay. For FIGS. 3A-B, antibodies were added to tumor cells 48 hours prior to labelling with ^51[Cr] to inhibit MICAS shedding. The isotype control antibody for assays with human NK cells was recombinant human IgG1 Fc (BE0096, BioXcell). […] At the end of the incubation period, plates were centrifuged (2000 rpm, 5 minutes), part of the supernatant was collected, mixed with scintillation fluid, and radioactivity was quantified using a MicroBeta2 reader (Perkin Elmer). Specific killing was calculated using the following formula: 100×(Experimental release−Spontaneous release)/(Maximum release−Spontaneous release).

human macrophages = experiment: Inhibition of MICA shedding by macrophages; format: cell-based; conditions: acetylated-LDL, 24 hours, antibody 10 μg/ml
Protocol: PBMC were isolated from a leukapheresis collar obtained from a healthy donor, and monocytes were isolated by adherence to tissue culture plates (2 hour incubation). Non-adherent cells were then washed away and M-CSF was added at 100 ng/ml in RPMI-1640 media supplemented with 10% FBS, Glutamax and Penicillin/Streptomycin. Visual inspection of cell morphology on day 5 confirmed that monocytes had differentiated into macrophages. Macrophages were treated for 24 hours in 96-well plates with different concentrations of acetylated LDL as well as MICA antibodies (10 μg/ml). Shed MICA in supernatants was examined by ELISA (Abcam) and cell surface density of MICA/B was quantified by flow cytometry.

human NK cells [2] = experiment: Intracellular interferon-γ production by NK cells co-cultured with tumor cells; format: cell-based; conditions: co-culture with tumor cells, antibody 10 μg/ml
Protocol: NK cells were co-cultured for 6 hours at a ratio of 5:1 with tumor cells in the presence of Brefeldin-A (Biolegend). After the incubation time, Fc receptors were blocked, cells stained with NK cell markers, stained further with a dead cell marker (Zombie Yellow, Biolegend), and subsequently processed for intracellular interferon-γ labeling. Briefly, cells were fixed with BD Cytofix/Cytoperm™ Fixation and Permeabilization Solution (BD Pharmingen), permeabilized with Permeabilization Wash Buffer (Biolegend), and stained with APC-conjugated anti-human interferon-γ (4S.B3, Biolegend) or appropriate isotype control. Fluorescence spectra were acquired using a LSR Fortessa flow cytometer and analyzed by FlowJo.

B1: 7C6-hIgG1: recombinant 7C6 with Fc segment replaced by human IgG1 (antibody, V domains shown)
VH: QIQLVQSGPELKKPGETVKVSCKASGYMFTNYAMNWVKQAPEKGLKWMGWINTHTGDPTYADDFKGRIAFSLETSASTAYLQINNLKNEDTATYFCVRTYGNYAMDYWGQGTSVTVSS
VL: DIQMTQTTSSLSASLGDRVTISCSASQDISNYLNWYQQKPDGTVKLLIYDTSILHLGVPSRFSGSGSGTDYSLTISNLEPEDIATYYCQQYSKFPRTFGGGTTLEIK
- gene expression by human NK cells (human NK cells [1]): upregulated genes associated with NK cell activation and effector functions
- number of lung metastases (A2058 melanoma cells; NSG mice reconstituted with human NK cells, day 30): had fewer lung metastases; also recorded: reduces number of lung metastases in the presence of human NK cells
- activity against liver metastases after macrophage depletion (A2058 melanoma cells; clodronate liposomes, no NK cell reconstitution, 3 weeks): abrogated the therapeutic activity
- number of organs with metastases (metastatic load) (A2058 melanoma cells; day 30): reduced the number of organs with metastases; also recorded: significantly reduced metastatic load in the absence of transferred NK cells
- survival (A2058 melanoma cells; mice reconstituted with human NK cells): significant survival benefit; also recorded: increases the survival of mice
- number of liver metastases (A2058 melanoma cells; with or without NK cell transfer, day 30): substantially reduced the number of liver metastases even without NK cell transfer; also recorded: shows significant therapeutic activity against liver metastases even in the absence of NK cells
- CD80 expression by Kupffer cells (Kupffer cells): higher surface levels of the CD80 activation marker; also recorded: increased expression of CD80 by Kupffer cells
- NK cell-mediated cytotoxicity against antibody-pretreated A375 cells (A375 cells; A375 treated 48 hours, 4 hour co-culture with human NK cells): triggered stronger NK cell-mediated cytotoxicity than the 7C6-hIgG1-DANA mutant
- NK cell mediated cytotoxicity against human tumor cells (A375 cells; human NK cells, antibody added at time of killing assay (10 μg/ml, 66.7 nM)): enabled strong NK cell mediated killing of human tumor cells; also recorded: exhibit cytotoxicity against A375 cells
- MICA and MICB surface levels on macrophages (human macrophages): increased MICA and MICB surface levels on macrophages
- MICA shedding by macrophages (human macrophages): inhibited MICA shedding
- IFNγ (cytokine) production by human NK cells (human NK cells [2]): produced higher levels of IFNγ
